The text below walks through data of PMC11178898, “A clade of receptor-like cytoplasmic kinases and 14-3-3 proteins coordinate inositol hexaphosphate accumulation” (Nature Communications, 2024).

The labels stand for the following.
B1: GRF4, Split-LUC fusion [Arabidopsis thaliana] / PI-PLC2, Split-LUC fusion [Arabidopsis thaliana] (parent)
chain 1: MAAPPASSSAREEFVYLAKLAEQAERYEEMVEFMEKVAEAVDKDELTVEERNLLSVAYKNVIGARRASWRIISSIEQKEESRGNDDHVTTIRDYRSKIESELSKICDGILKLLDTRLVPASANGDSKVFYLKMKGDYHRYLAEFKTGQERKDAAEHTLTAYKAAQDIANAELAPTHPIRLGLALNFSVFYYEILNSPDRACNLAKQAFDEAIAELDTLGEESYKDSTLIMQLLRDNLTLWTSDMQDESPEEIKEAAAPKPAEEQKEI
chain 2: MSKQTYKVCFCFRRRFRYTASEAPREIKTIFEKYSENGVMTVDHLHRFLIDVQKQDKATREDAQSIINSASSLLHRNGLHLDAFFKYLFGDNNPPLALHKVHHDMDAPISHYFIFTGHNSYLTGNQLSSDCSEVPIIDALKKGVRVIELDIWPNSNKDDIDVLHGMTLTTPVGLIKCLKAIRAHAFDVSDYPVVVTLEDHLTPDLQSKVAEMVTEIFGEILFTPPVGESLKEFPSPNSLKRRIIISTKPPKEYKEGKDVEVVQKGKDLGDEEVWGREVPSFIQRNKSEAKDDLDGNDDDDDDDDEDKSKINAPPQYKHLIAIHAGKPKGGITECLKVDPDKVRRLSLSEEQLEKAAEKYAKQIVRFTQHNLLRIYPKGTRVTSSNYNPLVGWSHGAQMVAFNMQGYGRSLWLMQGMFRANGGCGYIKKPDLLLKSGSDSDIFDPKATLPVKTTLRVTVYMGEGWYFDFRHTHFDQYSPPDFYTRVGIAGVPGDTVMKKTKTLEDNWIPAWDEVFEFPLTVPELALLRLEVHEYDMSEKDDFGGQTCLPVWELSEGIRAFPLHSRKGEKYKSVKLLVKVEFV

Variants of B1 are the subject of one assay. Briefly: Split-LUC. The note with it: with PI-PLC2, Split-LUC fusion [Arabidopsis thaliana]; P4: nluc-GRF4 S242D, cluc-PI-PLC2, 35S::IPCK1-flag co-infiltrated (1:1:2); Total cps 150882, Areas 56.84; parent value is P1, which the printed layout grid …; parent: 1.67e+03.
In the case of chain 1 MAAPPASSSAREEFVYLAKLAEQAERYEEMVEFMEKVAEAVDKDELTVEERNLLSVAYKNVIGARRASWRIISSIEQKEESRGNDDHVTTIRDYRSKIESELSKICDGILKLLDTRLVPASANGDSKVFYLKMKGDYHRYLAEFKTGQERKDAAEHTLTAYKAAQDIANAELAPTHPIRLGLALNFSVFYYEILNSPDRACNLAKQAFDEAIAELDTLGEESYKDSTLIMQLLRDNLTLWTDDMQDESPEEIKEAAAPKPAEEQKEI [chain 1 S242D], the response (cps (average)) amounted to 2650.

The same assay, now with this note: with PI-PLC2, Split-LUC fusion [Arabidopsis thaliana]; P3: nluc-GRF4 S242A, cluc-PI-PLC2, 35S::IPCK1-flag co-infiltrated (1:1:2); Total cps 91336, Areas 49.23; parent value is P1, which the printed layout grid …; parent: 1.67e+03.
As to chain 1 MAAPPASSSAREEFVYLAKLAEQAERYEEMVEFMEKVAEAVDKDELTVEERNLLSVAYKNVIGARRASWRIISSIEQKEESRGNDDHVTTIRDYRSKIESELSKICDGILKLLDTRLVPASANGDSKVFYLKMKGDYHRYLAEFKTGQERKDAAEHTLTAYKAAQDIANAELAPTHPIRLGLALNFSVFYYEILNSPDRACNLAKQAFDEAIAELDTLGEESYKDSTLIMQLLRDNLTLWTADMQDESPEEIKEAAAPKPAEEQKEI [chain 1 S242A], the response (cps (average)) came to 1860.
